Target: T1, recombinant mouse CD200R1 Fc chimera (mouse, UniProt Q9ES57 26-238)
T1 sequence (looked up): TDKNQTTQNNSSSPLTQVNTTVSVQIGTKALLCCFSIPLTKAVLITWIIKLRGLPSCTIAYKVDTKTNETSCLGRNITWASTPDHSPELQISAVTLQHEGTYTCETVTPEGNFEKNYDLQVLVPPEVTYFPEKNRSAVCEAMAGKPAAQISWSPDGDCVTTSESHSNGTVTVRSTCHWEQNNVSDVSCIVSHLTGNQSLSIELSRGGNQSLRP
Assay: ELISA

binding result: binds
B1: biotinylated recombinant mouse CD200-Fc Chimera (carrier-free) (Fc fusion, UniProt O54901 31-232, looked up)
chain: QVEVVTQDERKALHTTASLRCSLKTSQEPLIVTWQKKKAVSPENMVTYSKTHGVVIQPAYKDRINVTELGLWNSSITFWNTTLEDEGCYMCLFNTFGSQKVSGTACLTLYVQPIVHLHYNYFEDHLNITCSATARPAPAISWKGTGTGIENSTESHFHSNGTTSVTSILRVKDPKTQVGKEVICQVLYLGNVIDYKQSLDKG
modifications: biotin (biotinylated; site not stated)
